Assay results taken from paper PMC4338608.

What was measured:
Assay in all cases: resonant mirror detection
[1] = target: recombinant human calmodulin with four extra N-terminal amino acids Gly-Ser-His-Met (human)
[2] = target: GST-NHE1cd mutant M3 (K513KK→AAA) (rat (Rattus norvegicus))
[3] = target: GST-NHE1cd mutant M1 (K513KKQETKR→AAAQETAA) (rat (Rattus norvegicus))
[4] = target: GST-NHE1cd mutant M2 (R556FNKKYVKK→…) (rat (Rattus norvegicus))

Row | Kd [1] | Kd [2] | koff [2] | kon [2] | Kd [3] | kon [3] | Kd [4] | kon [4] | Substance
1 | 0.1 µM | 0.545 µM | 0.065 s⁻¹ | 120000 M⁻¹ s⁻¹ | – | – | – | – | recombinant 4.1R FERM domain (from UniProt P11171 210-488) (domain or fragment)
2 | – | – | – | – | 4.79 µM | 250 M⁻¹ s⁻¹ | 26.1 µM | 240 M⁻¹ s⁻¹ | exon 5-encoded human 4.1R^80 polypeptide (GST fusion) (domain or fragment)
